Measurements taken from US20260132182A1 (published 2026).
Starred links: 1 amine or outer side, 2 acyl side, 3 side chain; linkers in the order of their positions; H or OH if unused. Non-standard residues stand in square brackets, D forms with d. Groups on a side chain read outwards from the residue. *: point of attachment. Butyryl(4-SO2NHCO(CH2)16Tz) = O=C(CCCCCCCCCCCCCCCCc1nnn[nH]1)NS(=O)(=O)CCCC(=O)*; C20 diacid = O=C(O)CCCCCCCCCCCCCCCCCCC(=O)*; C18 diacid = O=C(O)CCCCCCCCCCCCCCCCC(=O)*; γGlu = O=C(O)[C@H](CCC(=O)[*:2])N[*:1]; C14 diacid = O=C(O)CCCCCCCCCCCCC(=O)*; Desaminohistidyl = O=C(CCc1c[nH]cn1)*; Trx = NC[C@H]1CC[C@H](C(=O)O)CC1; AEEA = NCCOCCOCC(=O)O; Aib = CC(C)(N)C(=O)O

How the values were obtained:
[1] = molecular target: T1, human amylin-3 (a) receptor (human, UniProt P30988 25-474; O60896 24-148); experiment: cell-based or functional assay
T1 sequence (looked up) 1: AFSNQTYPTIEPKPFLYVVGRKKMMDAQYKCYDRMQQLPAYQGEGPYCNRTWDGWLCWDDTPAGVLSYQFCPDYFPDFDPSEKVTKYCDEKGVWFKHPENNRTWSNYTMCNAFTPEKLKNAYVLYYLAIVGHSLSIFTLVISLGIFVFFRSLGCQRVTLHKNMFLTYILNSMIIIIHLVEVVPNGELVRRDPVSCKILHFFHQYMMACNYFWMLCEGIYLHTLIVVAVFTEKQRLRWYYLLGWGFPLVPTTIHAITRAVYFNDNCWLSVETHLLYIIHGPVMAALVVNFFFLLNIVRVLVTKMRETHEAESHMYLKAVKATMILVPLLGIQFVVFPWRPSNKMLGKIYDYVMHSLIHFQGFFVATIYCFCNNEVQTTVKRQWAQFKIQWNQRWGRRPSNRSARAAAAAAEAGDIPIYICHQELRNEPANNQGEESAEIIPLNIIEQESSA
T1 sequence (looked up) 2: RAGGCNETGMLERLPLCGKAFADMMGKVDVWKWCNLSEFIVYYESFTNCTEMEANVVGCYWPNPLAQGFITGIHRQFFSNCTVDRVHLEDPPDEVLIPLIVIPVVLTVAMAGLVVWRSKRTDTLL

human GLP-1 receptor = human GLP-1 receptor (human, UniProt P43220 24-463); experiment: cell-based or functional assay

B1: Compound 0106 (peptide)
peptide: H[Aib]EGTFTSDVSSYLEEQAARK([Ado-Ado-γGlu-C18 diacid])FIEWLVRGK([Ado-Ado-γGlu-C18 diacid])GEGQEPGGASELSTAALGRLSAELHELATLPRTETGSGSP-NH2
With B1 as the binder, how does the “Human AmyR3 potency [EC50 (pM)]” value [1] read?
Its value is 28.4 pM.

B2: Compound 0147 (peptide)
peptide: H[Aib]EGTFTSDVSSYLEEQAAREFIEWLVRGK(Butyryl(4-SO2NHCO(CH2)16Tz))ASELSTAALGRLSAELHELATLPRTETGSGSP-NH2
B2 was tested. Which “Human GLP-1R potency [EC50 (pM)]” value (human GLP-1 receptor) did it give?
Its value is 36.8 pM.

And the “Human AmyR3 potency [EC50 (pM)]” value [1]?
Its value is 33.7 pM.

B3: Compound 0124 (peptide)
peptide: [Desaminohistidyl][Aib]EGTFTSDVSSYLEEQAAREFIAWLVRGRK(Butyryl(4-SO2NHCO(CH2)16Tz))EASELSTAALGRLSAELHELATLPRTETGSGSP-NH2
For B3, which “Human GLP-1R potency [EC50 (pM)]” value (human GLP-1 receptor) is on record?
The value was 27.9 pM.

What about the “Human AmyR3 potency [EC50 (pM)]” value [1] of the same binder?
The value was 24.4 pM.

B4: Compound 0146 (peptide)
peptide: H[Aib]EGTFTSDVSSYLEEQAAREFIEWLVRGK(Butyryl(4-SO2NHCO(CH2)16Tz))GGGASELSTAALGRLSAELHELATLPRTETGSGSP-NH2
With B4 as the binder, how does the “Human GLP-1R potency [EC50 (pM)]” value (human GLP-1 receptor) read?
The value was 25.7 pM.

And the “Human AmyR3 potency [EC50 (pM)]” value [1]?
Its value is 14 pM.

B5: Compound 0127 (peptide)
peptide: H[Aib]EGTFTSDVSSYLEEQAARK([AEEA-AEEA-γGlu-C18 diacid])FIAWLVRGK([AEEA-AEEA-γGlu-C18 diacid])GGEASELSTAALGRLSAELHELATLPRTETGSGSP-NH2
For B5, which “Human GLP-1R potency [EC50 (pM)]” value (human GLP-1 receptor) is on record?
The value was 7.1 pM.

And the “Human AmyR3 potency [EC50 (pM)]” value [1]?
Its value is 63.9 pM.

B6: Compound 0039 (peptide)
peptide: HGEGTFTSDVSSYLEEQAARK([AEEA-AEEA-γGlu-C14 diacid])FIEWLVRGK([AEEA-AEEA-γGlu-C14 diacid])GEASELSTAALGRLSAELHELATLPRTETGSGSP-NH2
Which results are given for B6?
Human GLP-1R potency [EC50 (pM)] (human GLP-1 receptor): 34.8 pM; Human AmyR3 potency [EC50 (pM)] [1]: 59.5 pM

B7: Compound 0145 (peptide)
peptide: H[Aib]EGTFTSDVSSYLEEQAAREFIAWLVRGRGK(Butyryl(4-SO2NHCO(CH2)16Tz))GGGASELSTAALGRLSAELHELATLPRTETGSGSP-NH2
Which results are given for B7?
Human GLP-1R potency [EC50 (pM)] (human GLP-1 receptor): 11.9 pM; Human AmyR3 potency [EC50 (pM)] [1]: 16.5 pM

B8: Compound 0131 (peptide)
peptide: H[Aib]EGTFTSDVSSYLEEQAARK([γGlu-C18 diacid])FIAWLVRGRK([γGlu-C18 diacid])EASELSTAALGRLSAELHELATLPRTETGSGSP-NH2
Which results are given for B8?
Human GLP-1R potency [EC50 (pM)] (human GLP-1 receptor): 16.1 pM; Human AmyR3 potency [EC50 (pM)] [1]: 14.5 pM

B9: Compound 0156 (peptide)
peptide: H[Aib]EGTFTSDVSSYLEGQAAK([AEEA-AEEA-γGlu-C18 diacid])EFIAWLVRGRGQAPGQEPEASELSTAALGRLSAELHELATLPRTETGSGSP-NH2
For B9, which “Human GLP-1R potency [EC50 (pM)]” value (human GLP-1 receptor) is on record?
The value was 22.6 pM.

And the “Human AmyR3 potency [EC50 (pM)]” value [1]?
The value was 22.6 pM.

B10: Compound 0142 (peptide)
peptide: [Desaminohistidyl][Aib]EGTFTSDVSSYLEEQAAREFIAWLVRGRK([γGlu-C20 diacid])EASELSTAALGRLSAELHELATLPRTETGSGSP-NH2
Which “Human GLP-1R potency [EC50 (pM)]” value (human GLP-1 receptor) does the source give for B10 here?
The value was 88.2 pM.

And the “Human AmyR3 potency [EC50 (pM)]” value [1]?
Its value is 15.4 pM.

B11: Compound 0151 (peptide)
peptide: H[Aib]EGTFTSDVSSYLEGQAAREFIAWLVRGRK([AEEA-AEEA-γGlu-C18 diacid])GGGGEASELSTAALGRLSAELHELATLPRTETGSGSP-NH2
Which “Human GLP-1R potency [EC50 (pM)]” value (human GLP-1 receptor) does the source give for B11 here?
The value was 10.4 pM.

And the “Human AmyR3 potency [EC50 (pM)]” value [1]?
The value was 9.5 pM.

B12: Compound 0144 (peptide)
peptide: H[Aib]EGTFTSDVSSYLEEQAAREFIAWLVK([AEEA-AEEA-γGlu-C18 diacid])GRGGGGGEASELSTAALGRLSAELHELATLPRTETGSGSP-NH2
How did the “Human GLP-1R potency [EC50 (pM)]” value (human GLP-1 receptor) turn out when B12 was run?
The value was 7.1 pM.

What about the “Human AmyR3 potency [EC50 (pM)]” value [1] of the same binder?
Its value is 16.8 pM.

B13: Compound 0007 (peptide)
peptide: H[Aib]EGTFTSDVSSYLEGQAAK([AEEA-AEEA-γGlu-C18 diacid])EFIAWLVRGRGGGEASELSTAALGRLSAELHELATLPRTETGSGSP-NH2
Which results are given for B13?
Human GLP-1R potency [EC50 (pM)] (human GLP-1 receptor): 13.3 pM; Human AmyR3 potency [EC50 (pM)] [1]: 9.4 pM

B14: Compound 0636 (peptide)
peptide: H[Aib]EGTFTSDVSSYLEEQAARK([AEEA-AEEA-γGlu-γGlu-γGlu-C20 diacid])FIEWLVRGRQEAASELSTAALGRLSAELHQLATLPRTETGSGSP-NH2
How did the “Human AmyR3 potency [EC50 (pM)]” value [1] turn out when B14 was run?
Its value is 8.5 pM.

B15: Compound 0129 (peptide)
peptide: H[Aib]EGTFTSDVSSYLEEQAARK([AEEA-AEEA-γGlu-C18 diacid])FIEWLVRGRK([AEEA-AEEA-γGlu-C18 diacid])GGEASELSTAALGRLSAELHELATLPRTETGSGSP-NH2
What does the source list for B15?
Human GLP-1R potency [EC50 (pM)] (human GLP-1 receptor): 1.2 pM; Human AmyR3 potency [EC50 (pM)] [1]: 23.5 pM

B16: Compound 0141 (peptide)
peptide: H[Aib]EGTFTSDVSSYLEEQAAREFIAWLVRGRK([γGlu-C20 diacid])EASELSTAALGRLSAELHELATLPRTETGSGSP-NH2
How did the “Human GLP-1R potency [EC50 (pM)]” value (human GLP-1 receptor) turn out when B16 was run?
The value was 43.3 pM.

And the “Human AmyR3 potency [EC50 (pM)]” value [1]?
Its value is 13.2 pM.

B17: Compound 0125 (peptide)
peptide: H[Aib]EGTFTSDVSSYLEEQAARK(Butyryl(4-SO2NHCO(CH2)16Tz))FIAWLVRGRGEASELSTAALGRLSAELHELATLPRTETGSGSP-NH2
For B17, which “Human GLP-1R potency [EC50 (pM)]” value (human GLP-1 receptor) is on record?
The value was 8 pM.

And the “Human AmyR3 potency [EC50 (pM)]” value [1]?
The value was 12.2 pM.

B18: Compound 0026 (peptide)
peptide: H[Aib]EGTFTSDVSSYLEGQAAK([AEEA-AEEA-γGlu-C18 diacid])EFIAWLVRGRGQEPGQAPEASELSTAALGRLSAELHELATLPRTETGSGSP-NH2
What does the source list for B18?
Human GLP-1R potency [EC50 (pM)] (human GLP-1 receptor): 8.8 pM; Human AmyR3 potency [EC50 (pM)] [1]: 14 pM

B19: Compound 0157 (peptide)
peptide: H[Aib]EGTFTSDVSSYLEGQAAK([AEEA-AEEA-γGlu-C20 diacid])EFIAWLVRGRGQAPGQEPEASELSTAALGRLSAELHELATLPRTETGSGSP-NH2
Which results are given for B19?
Human GLP-1R potency [EC50 (pM)] (human GLP-1 receptor): 28.7 pM; Human AmyR3 potency [EC50 (pM)] [1]: 18.4 pM

B20: Compound 0128 (peptide)
peptide: H[Aib]EGTFTSDVSSYLEEQAARK([AEEA-AEEA-γGlu-C18 diacid])FIEWLVRGK([AEEA-AEEA-γGlu-C18 diacid])GGEASELSTAALGRLSAELHELATLPRTETGSGSP-NH2
B20 was tested. Which “Human GLP-1R potency [EC50 (pM)]” value (human GLP-1 receptor) did it give?
The value was 9.7 pM.

And the “Human AmyR3 potency [EC50 (pM)]” value [1]?
Its value is 110 pM.

B21: Compound 0132 (peptide)
peptide: H[Aib]EGTFTSDVSSYLEEQAAREFIAWLVRGK([AEEA-AEEA-γGlu-C18 diacid])GGEASELSTAALGRLSAELHELATLPRTETGSGSP-NH2
B21 was tested. Which “Human GLP-1R potency [EC50 (pM)]” value (human GLP-1 receptor) did it give?
Its value is 3 pM.

And the “Human AmyR3 potency [EC50 (pM)]” value [1]?
The value was 34.9 pM.

B22: Compound 0035 (peptide)
peptide: [Desaminohistidyl]AEGTFTSDVSSYLEEQAAREFIAWLVRGRK([AEEA-AEEA-γGlu-Trx-C20 diacid])EASELSTAALGRLSAELHELATLPRTETGSGSP-NH2
Which results are given for B22?
Human GLP-1R potency [EC50 (pM)] (human GLP-1 receptor): 16.7 pM; Human AmyR3 potency [EC50 (pM)] [1]: 16 pM
